Experimental data published in PMC5775292, “Comprehensive reduction of amino acid set in a protein suggests the importance of prebiotic amino acids for stable proteins” (Scientific Reports, 2018).

Target: the molecule itself
Experiment: SEC; analytical gel filtration, Superdex 200 (1.0 x 30 cm), 20 mM potassium phosphate pH 6.0, 150 mM KCl, 1 mM EDTA; initial protein concentration 20 uM, 0.2 ml loaded, 0.5 ml/min; apparent molar mass from a calibration curve

B1: Bacillus subtilis nucleoside diphosphate kinase (enzyme, UniProt P31103 1-149, looked up)
chain: MMEKTFIMVKPDGVQRQLIGDILSRFERKGLQLAGAKLMRVTEQMAEKHYAEHQGKPFFGELVEFITSGPVFAMVWEGENVIEVTRQLIGKTNPKEALPGTIRGDYGMFVGKNIIHGSDSLESAEREINIFFKNEELVSYQQLMAGWIY
notes: nucleoside diphosphate kinase, Bacillus subtilis; construct not described; also called B. subtilis NDK; extant mesophilic NDK
stoichiometry N: 6
